This note sets out measurements from patent US20250235548A1, “ANTIBODY-DRUG CONJUGATES TARGETING NAPI2B AND METHODS OF USE” (Zymeworks BC Inc., priority 2022, published 2025).

“Also recorded” adds a separate entry of the source.

For the data set, the system named is NaPi2b-negative EBC-1 cells. As to the kind of experiment: Bystander activity, EBC-1 mono-culture vs co-culture with HCC-78 (Examples 19 and 34). It is filed as cell-based. To be noted: for Average EBC-1 % viability in co-culture / Average EBC-1 % viability in mono-culture / bystander activity (in words): 4 days; for bystander activity (in words): 5 nM test article. How it is done: The ability of v29456 ADCs to exert a bystander killing effect on cancer cells was assessed according to the method described below. Bystander killing can occur after target-specific uptake of an ADC into an antigen-positive cell. In this case, catabolism of the ADC results in release of payload or an active catabolite, which then crosses the cell membrane of nearby cells to elicit their death.
Cell lines used were HCC-78 (high NaPi2b expression) and EBC-1 (negative NaPi2b expression).
(§1) NaPi2b-positive HCC-78 and NaPi2b-negative EBC-1 cells were seeded either as mono-cultures or co-cultures in a 48-well plate at 15,000 cells and 5,000 cells, respectively, in 100 μL assay media (RPMI1640+10% FBS). ADCs were diluted to 10 nM in assay media and 100 μL was added to the cell-containing plates (5 nM final ADC concentration). Cells were incubated with ADCs for 4 days under standard culturing conditions (37° C./5% CO2). […] After incubation, cells were washed in FACS buffer, resuspended in 70 μL FACS buffer per well, and 35 μL per well were analyzed on a BD LSRFortessa™ Cell Analyzer (BD Biosciences, Franklin Lake, NJ). Dead cells were excluded by gating on YO—PRO®-1 staining. The number of HCC-78 and EBC-1 cells were determined by the number of events in the Alexa Fluor®647 positive (NaPi2b-positive) and Alexa Fluor®647 negative (NaPi2b-negative) gates, respectively. Percent viability was calculated as the number of cells in treatment condition divided by the number of cells in the no-treatment condition.
Bystander effect was calculated by comparing the viability of NaPi2b-negative EBC-1 cells treated as mono-culture (black bars) with that of the cells treated as a co-culture with NaPi2b-positive HCC-78 cells (grey bars). A greater decrease in viability in co-culture compared with mono-culture indicated a greater bystander effect.
Bystander killing can occur after target-specific uptake of an ADC into an antigen-positive cell, as described in Example 19. Cell lines used were HCC-78 (high NaPi2b expression) and EBC-1 (negative NaPi2b expression). Surface NaPi2b expression for these cell lines were measured as described in Example 15.
[…] […] The human antibody variant v29456 conjugated to MC-GGFG-AM-DXd1 was included as a positive control.
as §1, with “Briefly, NaPi2b-positive HCC-78” for “NaPi2b-positive HCC-78”, “10 nM or 40 nM in assay” for “10 nM in assay”, “plates (5 nM or 20 nM final” for “plates (5 nM final”, “resuspended in 60 μL FACS” for “resuspended in 70 μL FACS”, “cells in each treatment condition” for “cells in treatment condition”
Bystander effect was calculated by comparing the viability of NaPi2b-negative EBC-1 cells treated as mono-culture (black bars) with that of the cells treated as a co-culture with NaPi2b-positive HCC-78 cells (grey bars). A greater decrease in viability in co-culture compared with mono-culture indicates a greater bystander effect.

For “v22277-MCvcPABC-MMAE: negative (non-NaPi2b targeting) controls palivizumab (v22277) MC-GGFG-AM-DXd and palivizumab (v22277) MCvcPABC-MMAE”, the “Average EBC-1 % viability in co-culture” value was 95.8% (5 nM ADC, co-culture with NaPi2b-positive HCC-78, relative to untreated blank); 81.7% (5 nM, Biological Replicate 1, co-culture with HCC-78, relative to untreated blank); 84.1% (20 nM, Biological Replicate 1, co-culture with HCC-78, relative to untreated blank). For the same substance, the “Average EBC-1 % viability in mono-culture” value (5 nM ADC, relative to untreated blank) stood at 86.4%; the “Average EBC-1 % viability in mono-culture” value (5 nM, Biological Replicate 1, relative to untreated blank) is 89.2%; the “Average EBC-1 % viability in mono-culture” value (20 nM, Biological Replicate 1, relative to untreated blank) came out at 91.5%. In addition, the “% Bystander activity” value (5 nM ADC, viability in mono-culture compared with co-culture) is on record as −9.4%; the “% Bystander activity” value (5 nM, Biological Replicate 1) turned out to be 7.5%; the “% Bystander activity” value (20 nM, Biological Replicate 1) amounted to 7.4%.
With “palivizumab MC-GGFG-AM-DXd1: "palivizumab (v22277) MC-GGFG-AM-DXd1", negative control”, the “bystander activity (in words)” value was “negative bystander activity; also recorded: negligible bystander activity”.
Still for that read-out and setting: in the case of “palivizumab MCvcPABC-MMAE: "palivizumab (v22277) MCvcPABC-MMAE", negative control” it was “negative bystander activity; also recorded: negligible bystander activity”.
